No end group written: not given here. *: point of attachment. Butanoyl(4-pyren-1-yl) = O=C(CCCc1ccc2ccc3cccc4ccc1c2c34)*

This is an account of results in US9732120B2, “Self-assembled peptide nanostructures by exploiting conformational change, biosensor using the same and detection method of biomolecules using the same” (INDUSTRY-ACADEMIC COOPERATION FOUNDATION, YONSEI UNIVERSITY, priority 2014, dated 2017).

Assay type in all cases: physicochemical
The nature of data set [1]: Circular dichroism (CD) spectroscopy of the amphiphilic peptide depending on ionic strength and pH. As to conditions: for [θ]222/[θ]208 (degree of α-helix stabilization): 4° C., 1 μM peptide. The method, then: Circular dichroism (CD) spectroscopic analysis was performed as follows in order to investigate the dependence of the conformation of the amphiphilic peptide prepared in Preparation Example on ionic strength.
CD spectra were recorded using the Chirascan circular dichroism spectrometer equipped with a Peltier thermostat. The spectra were recorded between 260 nm and 190 nm using a 2-mm path cuvette. 10 scans were averaged. Also, molar ellipticity per amino acid residue was calculated. The peptide concentration was 1 μM unless specified otherwise and the sample solution incubated at least for a day before the measurement.
In the graph, ∘ indicates the peptide dissolved in water, and • indicates the peptide dissolved in 150 mM KF. In Test Example 1, the measurement of the samples was measured at 4° C.

Data set [2] can be described thus: Atomic force microscopy (AFM) of the amphiphilic peptide. The protocol: The amphiphilic peptide prepared in Preparation Example was subjected to atomic force microscopic (AFM) measurement. Atomic force microscopic scanning was made at 1.2-1.5 V with 0.5 Hz. The result is shown in FIGS. 15a-15b and FIGS. 16a-16b.
FIGS. 15a and 15b show atomic force microscopic (AFM) images of 2.5 μM of the amphiphilic peptide dissolved in water. FIG. 15a is a height image and FIG. 15b is a phase image.
FIGS. 16a and 16b show atomic force microscopic (AFM) images of 1 μM of the amphiphilic peptide dissolved in a 150 mM KF solution. FIG. 16a is a height image and FIG. 16b is a phase image.

Data set [3] is described as follows: Fluorescence spectroscopy of the amphiphilic peptide in water or 150 mM KF (pyrene excimer). The following applies: 0.25-20 μM peptide. The method, then:
The amphiphilic peptide prepared in Preparation Example was subjected to fluorescence spectroscopic measurement after dissolving in water or a 150 mM KF solution. Details are as follows.
Fluorescence spectra were measured using the LS55 fluorescence spectrometer (PerkinElmer). Pyrene was excited at 341 nm and the emission spectra were recorded in the range of 360-550 nm. The solid (-) curve indicates the amphiphilic peptide dissolved in 150 mM KF and the dotted ( . . . ) curve indicates the amphiphilic peptide dissolved in water.
Also, emission spectra were measured after dissolving 0.25-20 μM of the amphiphilic peptide prepared in Preparation Example in water (a) or a KF solution (b).

As for “amphiphilic peptide prepared in Preparation Example: hairpin-shaped amphiphilic peptide derived from HIV-1 rev protein (Rev12-64) with a pyrene group bound to the N-terminal via pyrenebutyric acid ({Butanoyl(4-pyren-1-yl)}-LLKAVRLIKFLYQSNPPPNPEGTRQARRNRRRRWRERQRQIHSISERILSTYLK)”, the “[θ]222/[θ]208 (degree of α-helix stabilization)” value in data set [1] (150 mM KF (increased ionic strength)) is 0.71; in data set [1] (in water), 0.31. In addition, the “solubility depending on pH” value in data set [1] (CD analysis, FIG. 12) is “solubility decreases gradually as the pH increases”. Moreover, the “particle diameter of globular nanostructures” value in data set [2] (1 μM peptide in 150 mM KF, AFM) is 20-50 nm. In data set [2] (2.5 μM peptide in water), the “state of the peptide by AFM” value is “exists mostly in monomer form”. The “excimer peak of pyrene (self-assembly)” value in data set [3] (dissolved in pure water) was “no excimer peak of pyrene was observed”; in data set [3] (ionic strength 150 mM (KF)), “the excimer peak of pyrene was observed”.
